Experimental data from PMC11843895, “Single-Molecule Nanopore Sequencing of the CpG Island from the Promoter of O6-Methylguanine-DNA Methyltransferase Provides Insights into the Mechanism of De Novo Methylation of G/C-Rich Regions”.

Assays:
Dnmt3a-CD [1] = biological target: T1, Dnmt3a-CD (UniProt O88508 608-908); assay: competition (inhibition of methylation); 300 nM MGMT-ds1-f substrate, 2 uM enzyme, 25 uM AdoMet; BLI: 20 mM HEPES-NaOH pH 7.5, 100 mM KCl, 1 mM EDTA, 0.2 mM DTT, 100 uM AdoHcy, 5% glycerol, 0.02% Tween-20, 0.5 mg/mL BSA, 25 C; inhibition: buffer A (20 mM HEPES-NaOH pH 7.5, 100 mM KCl, 1 mM EDTA, 1 mM DTT) with 25 uM AdoMet, 37 C; FP: buffer A; conditions: protein: recombinant, tags: N-terminal 6xHis, chain copies: 2
T1 sequence (O88508 608-908): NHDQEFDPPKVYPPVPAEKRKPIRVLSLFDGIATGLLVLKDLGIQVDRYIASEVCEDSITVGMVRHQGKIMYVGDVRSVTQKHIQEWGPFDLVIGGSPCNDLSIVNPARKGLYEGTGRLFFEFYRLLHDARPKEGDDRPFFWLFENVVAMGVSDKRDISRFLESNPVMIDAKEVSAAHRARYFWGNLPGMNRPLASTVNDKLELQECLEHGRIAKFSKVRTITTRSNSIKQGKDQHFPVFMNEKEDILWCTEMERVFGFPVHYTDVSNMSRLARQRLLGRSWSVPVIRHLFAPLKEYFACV

Dnmt3a-CD [2] = biological target: T1, Dnmt3a-CD; assay: BLI; 100 uM AdoHcy; BLI: 20 mM HEPES-NaOH pH 7.5, 100 mM KCl, 1 mM EDTA, 0.2 mM DTT, 100 uM AdoHcy, 5% glycerol, 0.02% Tween-20, 0.5 mg/mL BSA, 25 C; inhibition: buffer A (20 mM HEPES-NaOH pH 7.5, 100 mM KCl, 1 mM EDTA, 1 mM DTT) with 25 uM AdoMet, 37 C; FP: buffer A; conditions: protein: recombinant, tags: N-terminal 6xHis, chain copies: 2

B1: MGMT-G4-mut (ssDNA)
DNA: GTGCCGGAGCGCGCGGAGGCGGAG
Binder B1 has an IC50 (Dnmt3a-CD [1]; no G4 by CD) of 590 ± 90 nM.

B2: MGMT-G4 (structured_DNA)
DNA: GGGCCGGGGCGCGCGGGGGCGGAG
In the case of B2, the IC50 (Dnmt3a-CD [1]; G4, mixed hybrid (CD)) is reported as 610 ± 30 nM.

B3: MGMT-C-bio (ssDNA)
DNA: CTCCGCCCCCGCGCGCCCCGGCCC
Work on B3 yielded a Kd (Dnmt3a-CD [2]; label: 5' biotin) of 211 ± 21 nM.

B4: non-specific control (no CpG) (ssDNA)
DNA: CTGAATACTACTTCCTACCCCTTACCTGAT
B4 showed an IC50 (Dnmt3a-CD [1]) of 2400 ± 700 nM.

B5: MGMT-ds2-bio (dsDNA)
DNA 1: CTCCGCCCCCGCGCGCCCCGGCCC
DNA 2: GGGCCGGGGCGCGCGGGGGCGGAG
For B5, the Kd (Dnmt3a-CD [2]; label: 5' biotin on strand 1 (C-rich), blunt) was 15 ± 0.5 nM.

B6: MGMT-ds1-bio (dsDNA)
DNA 1: GGTCCTGCAGGCGCCCTCACTT
DNA 2: AAGTGAGGGCGCCTGCAGGACC
In the case of B6, the Kd (Dnmt3a-CD [2]; label: 5' biotin on strand 1, blunt) is reported as 65 ± 2 nM.

B7: MGMT-G4-bio (structured_DNA)
DNA: GGGCCGGGGCGCGCGGGGGCGGAG
B7 was tested, and the Kd (Dnmt3a-CD [2]; label: 5' biotin, G4, mixed hybrid (CD of unlabeled MGMT-G4)) was 14 ± 0.4 nM.
